Results as given in article PMC6724696 (Molecular Biology of the Cell, 2019).
Like-named read-outs stand apart in the source and are kept apart here. Where no end group is shown, it is not given here.

Tests used:
Assay in all cases: crystal structure
[1] = target: the molecule itself
[2] = target: the molecule itself; remark: listed apart in the source
[3] = target: the molecule itself; remark: listed apart in the source

B1: H6-Spc42^11–130-3K2N (SeMet) (domain or fragment, Saccharomyces cerevisiae, UniProt P36094 11-130, looked up)
chain: SSKSSRLYDDYYNIPYQYSNPTPMNRDYNDVGSRINADKLVPEEYKRNTEFINKAVQQNKELNFKLREKQNEIFELKKIAETLRSKLEKYVDITKKLEDQNLNLQIKISDLEKKLSDANS
modifications: selenomethionine (SeMet)
binding result [1]: binds

SDQDSRLKAIERELEVLTNYVMRSEDGNNDR (domain or fragment, Saccharomyces cerevisiae, UniProt P36094 181-211, looked up) [3H5I-Spc42^181–211 T193E,S195E]
stoichiometry N [2]: 3

B2: Spc42^246–305 (domain or fragment, Saccharomyces cerevisiae, UniProt P36094 246-305, looked up)
chain: SDDDIMMYESAELKRVEEEIEELKRKILVRKKHDLRKLSLNNQLQELQSMMDGDDNIKLD
modifications: also: selenomethionine (SeMet) in the crystals
stoichiometry N [3]: 2
